Source: patent US10874724B2, “Enzymatic immunomodulation of solid tumors and uses thereof” (University of Houston System, priority 2015, dated 2020)

What was measured:
4T1 cells = experiment: Wound healing assay; assay type: cell-based; conditions: 10 μM Adenosine or 50 μM ADA or both; wound area at 48 hrs
Experimental: Briefly, 4T1 cells were cultured to confluence in 35 mm dishes in triplicates. 12 hrs later cell were rinsed with PBS and starved in low serum media (1.5 ml; 0.5%-0.1% serum in RPMI) overnight. […] Pictures were taken immediately of the wound area in phase contrast and 10× and another at 48 hrs. Wound area was calculated using imagej and plotted.

HT29 cells = experiment: Effect of cAdo on cell proliferation (WST 1); assay type: cell-based; conditions: cAdo at 10 μM and above, WST 1 after 5 days
Experimental: 10^4 cells were seeded in 96 well dish in 100 μl. 12 hrs later the cells were treated with […] and 50 μM of cAdo and the cells were later assayed for cell number quantitatively using WST 1 reagent after 5 days. Briefly 10 μl of WST1 reagent was added to each well. The cells were incubated for 4 hrs. OD was measured using microtiter plate reader at 460 nm.

[1] = Stability of mADA enzymatic activity in cell culture medium; assay type: physicochemical; conditions: culture medium of 4T1, MCF7 and T47D cells; supernatant after 24 h, 48 h and 72 h; even after 3 days
Experimental: 4T1, MCF7 and T47D cells (1×10^5) were grown in 96 wells culture dish.

[2] = Enzyme activity of mADA-His and mADA-Fc (Adenosine Deaminase Assay Kit); assay type: biochemical; conditions: supernatant media of transfected HEK293F cells; OD at 550 nm
Experimental: Enzyme activity of mADA-His and mADA-Fc was assayed with Adenosine Deaminase Assay Kit (BQ 014-EALD). Briefly the 180 μl of reagent 1 was added to 96-well plate. Followed by 5 μl of supernatant media obtained from HEK293F cells transfected with mADA-His or mADA-Fc. Later 90 μl of reagent was added to each well and incubated for 8 mins at 37° C. The OD was measured at 550 nm.

[3] = intramuscular injection; cited from earlier work

Nc1ncnc2c1ncn2[C@@H]1O[C@H](CO)[C@@H](O)[C@H]1O [Ado, adenosine, reference compound]
Wound healing ability of 4T1 cells (4T1 cells): marginally promoted wound healing

Nc1nc(Cl)nc2c1ncn2[C@@H]1O[C@H](CO)[C@@H](O)[C@H]1O [cAdo, 2-chloro Ado]
Rate of cell proliferation (HT29 cells): marginal increase

B1: mADA: recombinant purified mouse adenosine deaminase (protein, UniProt P03958 2-352, looked up)
Adenosine deaminase: AQTPAFNKPKVELHVHLDGAIKPETILYFGKKRGIALPADTVEELRNIIGMDKPLSLPGFLAKFDYYMPVIAGCREAIKRIAYEFVEMKAKEGVVYVEVRYSPHLLANSKVDPMPWNQTEGDVTPDDVVDLVNQGLQEGEQAFGIKVRSILCCMRHQPSWSLEVLELCKKYNQKTVVAMDLAGDETIEGSSLFPGHVEAYEGAVKNGIHRTVHAGEVGSPEVVREAVDILKTERVGHGYHTIEDEALYNRLLKENMHFEVCPWSSYLTGAWDPKTTHAVVRFKNDKANYSLNTDDPLIFKSTLDTDYQMTKKDMGFTEEEFKRLNINAAKSSFLPEEEKKELLERLYREYQ
ADA enzyme activity in cell culture medium [1]: retained its activity

B2: mADA-His: mADA with His tag expressed in HEK293F cells, purified with Ni-NTA column (protein, UniProt P03958 2-352, looked up)
Adenosine deaminase: B1 Adenosine deaminase
modifications: His tag
Enzyme activity in supernatant [2]: enzymatically active

B3: ADA: Adenosine deaminase (EC 3.5.4.4), enzyme degrading Ado into inosine and ammonia (protein, UniProt P00813 2-363, looked up)
Adenosine deaminase: AQTPAFDKPKVELHVHLDGSIKPETILYYGRRRGIALPANTAEGLLNVIGMDKPLTLPDFLAKFDYYMPAIAGCREAIKRIAYEFVEMKAKEGVVYVEVRYSPHLLANSKVEPIPWNQAEGDLTPDEVVALVGQGLQEGERDFGVKARSILCCMRHQPNWSPKVVELCKKYQQQTVVAIDLAGDETIPGSSLLPGHVQAYQEAVKSGIHRTVHAGEVGSAEVVKEAVDILKTERLGHGYHTLEDQALYNRLRQENMHFEICPWSSYLTGAWKPDTEHAVIRLKNDQANYSLNTDDPLIFKSTLDTDYQMTKRDMGFTEEEFKRLNINAAKSSFLPEDEKRELLDLLYKAYGMPPSASAGQNL
Wound healing ability of 4T1 cells (4T1 cells): did not alter the wound healing ability

B4: bADA: bovine adenosine deaminase; PEGylated bADA is FDA approved (protein, UniProt P56658 2-363, looked up)
Adenosine deaminase: AQTPAFNKPKVELHVHLDGAIKPETILYYGRKRGIALPADTPEELQNIIGMDKPLSLPEFLAKFDYYMPAIAGCREAVKRIAYEFVEMKAKDGVVYVEVRYSPHLLANSKVEPIPWNQAEGDLTPDEVVSLVNQGLQEGERDFGVKVRSILCCMRHQPSWSSEVVELCKKYREQTVVAIDLAGDETIEGSSLFPGHVKAYAEAVKSGVHRTVHAGEVGSANVVKEAVDTLKTERLGHGYHTLEDATLYNRLRQENMHFEVCPWSSYLTGAWKPDTEHPVVRFKNDQVNYSLNTDDPLIFKSTLDTDYQMTKNEMGFTEEEFKRLNINAAKSSFLPEDEKKELLDLLYKAYGMPSPASAEQCL
Toxicity [3]: not shown any toxicity
